This note sets out measurements from the supplement of paper PMC10567573.

To fix the notation:
B1: CAMK2A (parent)
chain: CIQQILEAVLHCHQMGVVHRDLKP
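Note: lentivirally expressed fusions sorted by FACS into six bins by GFP to DsRed ratio, PSI derived from sequencing read proportions per bin multiplied by bin number.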

Variants of B1 are the subject of this data set. In words: protein stability index of a GFP-peptide fusion (GPS, HEK-293T) (PSI 1-6); higher = more stable. The conditions noted are these: c terminus: a fixed tail appended.
Take CIQQILEAVLHCHQMQVVHRDLKP: the protein stability index came out at 3.06.
Under CIQQILEAVLHCHQMVVVHRDLKP stands 1.3.
On to CIQQILEAVLHCHQMMVVHRDLKP, for which the protein stability index came out at 3.07.
For CIQQILEAVLHCHQMWVVHRDLKP, the protein stability index worked out at 1.79.
As to CIQQILEAVLHCHQMNVVHRDLKP, the protein stability index is 3.04.
Regarding CIQQILEAVLHCHQMYVVHRDLKP, the protein stability index is 1.91.
With CIQQILEAVLHCHQMEVVHRDLKP, the protein stability index came out at 3.1.
For the variant CIQQILEAVLHCHQMGEVHRDLKP, the protein stability index amounted to 2.01.
For CIQQILEAVLHCHQMGCVHRDLKP the value was 2.21.
Regarding CIQQILEAVLHCHQMGFVHRDLKP, the protein stability index was 1.59.
Under CIQQILEAVLHCHQMGNVHRDLKP stands 3.21; under CIQQILEAVLHCHQMGDVHRDLKP, 2.57; under CIQQILEAVLHCHQMGQVHRDLKP, 2.79.
Consider CIQQILEAVLHCHQMGAVHRDLKP, for which the protein stability index came out at 1.8.
On to CIQQILEAVLHCHQMGMVHRDLKP, for which the protein stability index came out at 2.44.
Under CIQQILEAVLHCHQMGIVHRDLKP stands 1.95; under CIQQILEAVLHCHQMGLVHRDLKP, 2.42; under CIQQILEAVLHCHQMGHVHRDLKP, 1.99.
As for CIQQILEAVLHCHQMGGVHRDLKP, the protein stability index came to 3.75.
Under CIQQILEAVLHCHQMGYVHRDLKP stands 3.53.
Under CIQQILEAVLHCHQMGPVHRDLKP stands 2.65.
Under CIQQILEAVLHCHQMGTVHRDLKP stands 3.89; under CIQQILEAVLHCHQMGRVHRDLKP, 3.99; under CIQQILEAVLHCHQMGVVHRDLHP, 3.03.
CIQQILEAVLHCHQMGVVHRDLCP: the protein stability index was found to be 3.94.
CIQQILEAVLHCHQMGVVHRDLSP: the protein stability index is 1.65.
CIQQILEAVLHCHQMGVVHRDLWP: the protein stability index came out at 3.83.
Under CIQQILEAVLHCHQMGVVHRDLRP stands 3.33; under CIQQILEAVLHCHQMGVVHRDLVP, 1.76; under CIQQILEAVLHCHQMGVVHRDLDP, 3.12.
With CIQQILEAVLHCHQMGVVHRDLYP, the protein stability index is 3.71.
Under CIQQILEAVLHCHQMGVVHRDLIP stands 2.2; under CIQQILEAVLHCHQMGVVHRDLEP, 2.61; under CIQQILEAVLHCHQMGVVHRDLPP, 2.63.
Under CIQQILEAVLHCHQMGVVHRDLLP stands 2.73; under CIQQILEAVLHCHQMGVVHRDLNP, 3.36; under CIQQILEAVLHCHQMGVVHIDLKP, 1.85.
CIQQILEAVLHCHQMGVVHLDLKP: the protein stability index was found to be 2.54.
As for CIQQILEAVLHCHQMGVVHDDLKP, the protein stability index amounted to 2.72.
For CIQQILEAVLHCHQMGVVHYDLKP the value was 2.17.
For CIQQILEAVLHCHQMGVVHNDLKP the value was 1.52; for CIQQILEAVLHCHQMGVVHGDLKP, 2.37.
Under CIQQILEAVLHCHQMGVVHTDLKP stands 3.37.
For CIQQILEAVLHCHQMGVVHWDLKP, the protein stability index stood at 3.1.
Under CIQQILEAVLHCHQMGVVHPDLKP stands 1.77.
For CIQQILEAVLHCHQMGVVHFDLKP, the protein stability index came out at 1.97.
Consider CIQQILEAVLHCHQMGVVHKDLKP, for which the protein stability index is 2.66.
Turning to CIQQILEAVLHCHQMGVVHEDLKP, the protein stability index came out at 3.3.
For CIQQILEAVLHCHQMGVVHCDLKP, the protein stability index worked out at 2.37.
As to CIQQILEAVLHCHQMGVVHRDCKP, the protein stability index came out at 3.02.
For CIQQILEAVLHCHQMGVVHRDAKP the value was 2.87.
For CIQQILEAVLHCHQMGVVHRDSKP the value was 2.34; for CIQQILEAVLHCHQMGVVHRDGKP, 2.03.
Consider CIQQILEAVLHCHQMGVVHRDRKP, for which the protein stability index stood at 1.03.
For CIQQILEAVLHCHQMGVVHRDNKP the value was 2.03; for CIQQILEAVLHCHQMGVVHRDYKP, 1.95; for CIQQILEAVLHCHQMGVVHRDFKP, 2.66.
For CIQQILEAVLHCHQMGVVHRDEKP the value was 2.96; for CIQQILEAVLHCHQMGVVHRDTKP, 3.01.
For CIQQILEAVLHCHQMGVVHRDIKP the value was 3.05.
Regarding CIQQILEAVLHCHQMGVVHRDPKP, the protein stability index is 1.82.
CIQQILEAVLHCHQMGVVHRDHKP: the protein stability index was 1.99.
Under CIQQILEAVLHCHQMGVVHRDQKP stands 1.62; under CIQQILEAVLHCHQMGVVHRDKKP, 2.53.
Under CIQQILEAVLHCHQMGVVHRDWKP stands 2.28; under CIQQILEAVLHCHQMGVVHRDLKW, 1.82; under CIQQILEAVLHCHQMGVVHRDLKR, 2.44.
For CIQQILEAVLHCHQMGVVHRDLKM the value was 3.07.
CIQQILEAVLHCHQMGVVHRDLKY: the protein stability index amounted to 3.
With CIQQILEAVLHCHQMGVVHRDLKC, the protein stability index was 1.95.
In the case of CIQQILEAVLHCHQMGVVHRDLKF, the protein stability index was determined as 2.58.
For CIQQILEAVLHCHQMGVVHRDLKD, the protein stability index is 2.99.
As for CIQQILEAVLHCHQMGVVHRDLKQ, the protein stability index is 1.86.
For CIQQILEAVLHCHQMGVVHRDLKI the value was 3.7; for CIQQILEAVLHCHQMGVVHRDLKG, 2.88; for CIQQILEAVLHCHQMGVVHRDLKS, 2.12.
For CIQQILEAVLHCHQMGVVHRDLKK the value was 2.31.
For CIQQILEAVLHCHQMGVVHRDLKL the value was 1.78.
CIQQILEAVLHCHQMGVVHRMLKP: the protein stability index stood at 2.17.
Consider CIQQILEAVLHCHQMGVVHRCLKP, for which the protein stability index stood at 2.86.
For the variant CIQQILEAVLHCHQMGVVHRALKP, the protein stability index was 4.17.
Under CIQQILEAVLHCHQMGVVHRRLKP stands 2.75; under CIQQILEAVLHCHQMGVVHRWLKP, 3.37.
Under CIQQILEAVLHCHQMGVVHRQLKP stands 2.22; under CIQQILEAVLHCHQMGVVHRNLKP, 4.66; under CIQQILEAVLHCHQMGVVHRILKP, 3.1.
Take CIQQILEAVLHCHQMGVVHRTLKP: the protein stability index was 2.36.
As for CIQQILEAVLHCHQMGVVHRFLKP, the protein stability index is 2.97.
In the case of CIQQILEAVLHCHQMGVVHRPLKP, the protein stability index came to 2.07.
With CIQQILEAVLHCHQMGVVHRKLKP, the protein stability index was 4.29.
For CIQQILEAVLHCHQMGVVHRGLKP the value was 2.28.
For CIQQILEAVLHCHQMGVVHRLLKP the value was 3.01.
With CIQQILEAVLHCHQMGVVHRSLKP, the protein stability index turned out to be 1.66.
Under CIQQILEAVLHCHQMGVVHRHLKP stands 2.62.
